Measured values published in patent US5891679A, “TNF-alpha muteins and a process for preparing them” (priority 1993, dated 1999).
“Also recorded” adds a separate entry of the source. Bridges are numbered along the chain shown (N, C = ends). The star is where a group is joined. Biotin = O=C1N[C@H]2[C@H](CS[C@H]2CCCCC(=O)*)N1

Key:
[1] = system: Trypanosoma brucei brucei; test: In vitro trypanocidal assay, T. brucei brucei; type: cell-based; conditions: for effect on trypanocidal activity of TNF-α / tip peptide: preincubation or cotreatment with the substance; for % inhibition of trypanocidal activity: lectin 10 μg/ml; for Δ: % inhibition of trypanocidal activity by the addition of the p55 hTNFα receptor protein: p55 5 μg/ml
Method: The Trypanosoma brucei brucei AnTat 1.1 (EATRO 1125) pleomorphic bloodstream form was kindly provided to us by Dr. N. Van Meirvenne of the Institute for Tropical Medecine, Antwerp, Belgium, and the Trypanosoma brucei rhodesiense Trp 11 pleomorphic bloodstream form was kindly provided to us by Dr. E. Bajyana Songa (Dept. Molecular Biology, Free University of Brussels, Belgium)
After 5 h of incubation, the number of live (=moving) parasites was assessed (counting chamber) and compared the control wells in which only incubation medium was added to the trypanosomes. […] All treatments were done in quadruplicate and all reported in vitro trypanolysis experiments were repeated at least 3 times.

L929 cells = test: L929 cell killing (cytotoxic/cytolytic/tumoricidal) assay; type: cell-based, mouse; conditions: for effect on mTNF-α tumoricidal (cytolytic) activity: preincubation of mTNF-α with the substance; for Δ: % inhibition of tumoricidal activity by the addition of the p55 hTNFα receptor protein: p55 5 μg/ml
Method: L929 fibrosarcoma cells were obtained from the Rega Institute, Leuven, Belgium.
After 18 h of culture at 37° C., viability of the cell cultures was assessed by dye uptake analysis. […] The plates were read spectrophotometrically at 577 nm with a Titertek multiscan MCC340 ELISA Reader (Flow Laboratories, McLean, Va.).

[2] = system: human interleukin-6 (IL6); test: IL6 production by hMVECb cells; type: cell-based; conditions: for IL6 concentration: 24 hours
Method: Subsequently, the IL6 concentration in the supernatant of the cells was assessed using a commercially available hIL6 ELISA kit (Medgenix, Belgium).

[3] = system: human interleukin 8 (IL8); test: IL8 production by hMVECb cells; type: cell-based; conditions: for IL8 induction compared with wild type: human endothelial brain cells
[4] = In vivo half life of wild type and tip-deleted TNF-α (serum concentration)
Method: An ELISA assay to measure the protein concentration of the wild type and tip-deleted or tip-mutated mouse TNF-α protein was developed. […] Subsequently, the plates were washed once with washing buffer (PBS, 0.05% Tween-20) and the remaining binding sites were blocked for at least one hour at 37° C. with 300 μl per well of PBS buffer supplemented with 1% BSA and 0.1% NaN3. Dilutions of sample or standard mTNF-α (0.01 to 10 ng/ml mTNF-α), made in 100 μl of PBS supplemented with 1% BSA, 1% rabbit serum, and 0.1% mertiolate are then added to each well and incubated for 2 hours at 37° C. […] Subsequently, the plates are washed four times with washing buffer wherafter 100 μl of straptavidin-horseradish peroxidase (Jackson Immunoresearch Labs), which has been diluted in sample diluent to a concentration of 100 ng/ml is added and incubated for 30 minutes at 37° C. […] The reaction is stopped by adding 100 μl per well of 2N H2SO4 wherafter the optical density is read at dual wavelength (450/595 nm).
Female 8 weeks old C57bL/6 mice (6 mice/group--Charles Rivers Deutshland) were injected intraperitoneally with 1 μg/mouse of either wild type mouse TNF-α or tip deleted TNF-α. Subsequently, the mice were bled 0.5, 5, 10, 15, 30, 60, 120, 180, or 240 minutes post-injection.

[5] = system: 3LL-R Lewis lung carcinoma cells; test: Experimental metastasis inducing capacity on TNF resistant 3LL-R Lewis lung carcinoma cells; type: in vivo, mouse (C57bl/6); conditions: for metastasis enhancing potential compared with wild type TNF: 3LL-R
Method: At this time, all mice were killed and the lung weight as well as the amount of cancer cell nodules in the lung was assessed.

[6] = 333 pg/ml, experiment 1, 24 hours
[7] = 333 pg/ml, experiment 2, 24 hours
[8] = 1000 pg/ml, experiment 1, 24 hours
[9] = 1000 pg/ml, experiment 2, 24 hours
[10] = 1666 pg/ml, experiment 1, 24 hours
[11] = 1666 pg/ml, experiment 2, 24 hours

[Cl-].[Li+] [LiCl, reference compound]
potentiation of trypanocidal effect of TNF-α ([1]; 1 μg/ml of LiCl co-treatment): 100 fold
mortality of trypanosomes ([1]; T. brucei brucei, 5 h, data not shown): by itself had no effect on the survival of the trypanosomes
effect on trypanocidal activity of TNF-α / tip peptide [1]: synergistically potentiates the trypanocidal effect of mTNF-α

CC(=O)N[C@H]1[C@H](O[C@H]2[C@H](O)[C@@H](NC(C)=O)C(O)O[C@@H]2CO)O[C@H](CO)[C@@H](O)[C@@H]1O (stereo partly shown) [N,N'-diacetylchitobiose, reference compound]
effect on trypanocidal activity of TNF-α / tip peptide [1]: potently inhibits the trypanocidal activity; also recorded: potent inhibition of the mTNF-α trypanocidal effect; also recorded: trypanocidal activity of the peptide can also be inhibited
effect on mTNF-α tumoricidal (cytolytic) activity (L929 cells; L929 cells): not the cytolytic activity; also recorded: not affected

Bio-GG-C - - - - APEGAE - - - - - C (Biotin-GGCAPEGAEC-NH2; cysteine pairing not given here) [mutpep 1]
trypanocidal activity ([1]; T. brucei brucei): lost their trypanocidal activity

Bio-GG-C-TAEGAE-C (Biotin-GGCTAEGAEC-NH2; cysteine pairing not given here) [mutpep 2]
trypanocidal activity ([1]; T. brucei brucei): fully or even more active

Bio-GG-C-TPAGAE-C (Biotin-GGCTPAGAEC-NH2; cysteine pairing not given here) [mutpep 3]
trypanocidal activity ([1]; T. brucei brucei): lost their trypanocidal activity

Bio-GG-C-TPEAAE-C (Biotin-GGCTPEAAEC-NH2; cysteine pairing not given here) [mutpep 4]
trypanocidal activity ([1]; T. brucei brucei): fully or even more active

Bio-GG-C-TPEGAA-C (Biotin-GGCTPEGAAC-NH2; cysteine pairing not given here) [mutpep 5]
trypanocidal activity ([1]; T. brucei brucei): lost their trypanocidal activity

Bio-GG-C-TPEGAE-C (Biotin-GGCTPEGAEC-NH2; cysteine pairing not given here) [subpep 1]
trypanocidal activity ([1]; T. brucei brucei): full trypanocidal activity

Bio-GG-CGPKDTPEGAELKPWYC (Biotin-GGCGPKDTPEGAELKPWYC-NH2; disulfide 3-19 (inferred)) [mTNFα-tip]
trypanocidal activity ([1]; T. brucei brucei): shows a trypanocidal activity
trypanocidal specific activity ([1]; in vitro trypanocidal assay, average specificity): 4×10^2 -4×10^3 U/mg of peptide
tumoricidal activity of tip peptide (L929 cells; L929 cells, similar dose response curve, data not shown): exerts no tumoricidal activity

Bio-GG-CGQRETPEGAEAKPWYC [hTNFα-tip]
trypanocidal activity ([1]; T. brucei brucei): shows similar results

Bio-GG-EGAELKPWY [subpep 2]
trypanocidal activity ([1]; T. brucei brucei): strongly reduced trypanocidal activity

GNA: lectin Galanthus nivalis agglutinin [reference compound]
% inhibition of trypanocidal activity ([1]; mTNF-α 1.000 pg/ml): 5 ± 3%
% inhibition of trypanocidal activity ([1]; mTNF-α 10.000 pg/ml): 5 ± 2%
% inhibition of trypanocidal activity ([1]; mTNF-α 100 pg/ml): 0 ± 1%
% inhibition of trypanocidal activity ([1]; mTNF-α 100.000 pg/ml): 3 ± 2%
% inhibition of trypanocidal activity ([1]; mTNF-α 1.000.000 pg/ml): 2 ± 1%
effect on trypanocidal activity of TNF-α / tip peptide [1]: did not have any effect
effect on mTNF-α tumoricidal (cytolytic) activity (L929 cells; L929 cells): none of these lectins had any effect

B1: soluble p55 hTNF-α receptor: soluble p55 hTNF-α receptor protein (protein)
chain: DSVCPQGKYIHPQNNSICCTKCHKGTYLYNDCPGPGQDTDCRECESGSFTASENHLRHCLSCSKCRKEMGQVEISSCTVDRDTVCGCRKNQYRHYWSENLFQCFNCSLCLNGTVHLSCQEKQNTVCTCHAGFFLRENECVSCSNCKKSLECTKLCLPQIEN
Δ: % inhibition of trypanocidal activity by the addition of the p55 hTNFα receptor protein ([1]; mTNF-α 100 pg/ml): 15 ± 5%
Δ: % inhibition of trypanocidal activity by the addition of the p55 hTNFα receptor protein ([1]; mTNF-α 1000 pg/ml): 10 ± 4%
Δ: % inhibition of trypanocidal activity by the addition of the p55 hTNFα receptor protein ([1]; mTNF-α 10000 pg/ml): 7 ± 5%
effect on trypanocidal activity of TNF-α / tip peptide [1]: hardly influenced
Δ: % inhibition of tumoricidal activity by the addition of the p55 hTNFα receptor protein (L929 cells; mTNF-α 100 pg/ml): 100 ± 5%
Δ: % inhibition of tumoricidal activity by the addition of the p55 hTNFα receptor protein (L929 cells; mTNF-α 1000 pg/ml): 100 ± 4%
Δ: % inhibition of tumoricidal activity by the addition of the p55 hTNFα receptor protein (L929 cells; mTNF-α 10000 pg/ml): 5 ± 2%
effect on mTNF-α tumoricidal (cytolytic) activity (L929 cells; L929 cells): potently inhibits the mTNF-α tumoricidal activity

B2: P106A mTNF-α: Pro106 of mTNF-α is changed to an Ala residue (protein)
chain: LRSSSQNSSDKPVAHVVANHQVEEQLEWLSQRANALLANGMDLKDNQLVVPADGLYLVYSQVLFKGQGCPDYVLLTHTVSRFAISYQEKVNLLSAVKSPCPKDTAEGAELKPWYEPIYLGGVFQLEKGDQLSAEVNLPKYLDFAESGQVYFGVIAL
IL6 concentration ([2]; 333 pg/ml, experiment 1): 720 pg/mL
IL6 concentration ([2]; 333 pg/ml, experiment 2): 1300 pg/mL
IL6 concentration ([2]; 1000 pg/ml, experiment 1): 560 pg/mL
IL6 concentration ([2]; 1000 pg/ml, experiment 2): 750 pg/mL
IL6 concentration ([2]; 1666 pg/ml, experiment 1): 800 pg/mL
IL6 concentration ([2]; 1666 pg/ml, experiment 2): 1300 pg/mL
IL8 concentration [3, 6]: 300 pg/mL
IL8 concentration [3, 7]: 400 pg/mL
IL8 concentration [3, 8]: 1100 pg/mL
IL8 concentration [3, 9]: 1500 pg/mL
IL8 concentration [3, 10]: 250 pg/mL
IL8 concentration [3, 11]: 900 pg/mL
fold less IL8 induced than wild type TNF-α ([3]; hMVECb, 24 hours): about 3 fold
IL8 induction compared with wild type [3]: induce consistently less human interleukin 8 (IL8)

B3: del mTNF-α: tip-deleted mTNF-α; the TPEGAE coding sequence is deleted from the mTNF gene (protein)
chain: LRSSSQNSSDKPVAHVVANHQVEEQLEWLSQRANALLANGMDLKDNQLVVPADGLYLVYSQVLFKGQGCPDYVLLTHTVSRFAISYQEKVNLLSAVKSPCPKDLKPWYEPIYLGGVFQLEKGDQLSAEVNLPKYLDFAESGQVYFGVIAL
longer half life than wild type TNF-α ([4]; 1 μg/mouse i.p.): at least 2 fold
concentration TNF-α ([4]; Experiment 1, 0.5 minutes, 1 μg/mouse i.p.): 1 µg/mL
concentration TNF-α ([4]; Experiment 1, 5 minutes, 1 μg/mouse i.p.): 0.99 µg/mL
concentration TNF-α ([4]; Experiment 1, 10 minutes, 1 μg/mouse i.p.): 0.64 µg/mL
concentration TNF-α ([4]; Experiment 1, 15 minutes, 1 μg/mouse i.p.): 0.55 µg/mL
concentration TNF-α ([4]; Experiment 1, 30 minutes, 1 μg/mouse i.p.): 0.58 µg/mL
concentration TNF-α ([4]; Experiment 1, 60 minutes, 1 μg/mouse i.p.): 0.45 µg/mL
concentration TNF-α ([4]; Experiment 1, 120 minutes, 1 μg/mouse i.p.): 0.25 µg/mL
concentration TNF-α ([4]; Experiment 1, 180 minutes, 1 μg/mouse i.p.): 0.1 µg/mL
concentration TNF-α ([4]; Experiment 1, 240 minutes, 1 μg/mouse i.p.): 0.01 µg/mL
concentration TNF-α ([4]; Experiment 2, 0.5 minutes, 1 μg/mouse i.p.): 1 µg/mL
concentration TNF-α ([4]; Experiment 2, 15 minutes, 1 μg/mouse i.p.): 0.6 µg/mL
concentration TNF-α ([4]; Experiment 2, 30 minutes, 1 μg/mouse i.p.): 0.5 µg/mL
concentration TNF-α ([4]; Experiment 2, 60 minutes, 1 μg/mouse i.p.): 0.5 µg/mL
concentration TNF-α ([4]; Experiment 2, 120 minutes, 1 μg/mouse i.p.): 0.33 µg/mL
concentration TNF-α ([4]; Experiment 2, 180 minutes, 1 μg/mouse i.p.): 0.24 µg/mL
concentration TNF-α ([4]; Experiment 2, 240 minutes, 1 μg/mouse i.p.): 0.02 µg/mL
in vivo half life compared with wild type ([4]; L929 cytotoxic assay and indirect ELISA): increased half life
IL6 concentration ([2]; 333 pg/ml, experiment 1): 760 pg/mL
IL6 concentration ([2]; 333 pg/ml, experiment 2): 850 pg/mL
IL6 concentration ([2]; 1000 pg/ml, experiment 1): 1180 pg/mL
IL6 concentration ([2]; 1000 pg/ml, experiment 2): 1600 pg/mL
IL6 concentration ([2]; 1666 pg/ml, experiment 1): 1240 pg/mL
IL6 concentration ([2]; 1666 pg/ml, experiment 2): 1900 pg/mL
IL6 induction compared with wild type ([2]; hMVECb): higher induction of human interleukin-6
IL8 concentration [3, 6]: 1800 pg/mL
IL8 concentration [3, 7]: 2450 pg/mL
IL8 concentration [3, 8]: 1300 pg/mL
IL8 concentration [3, 9]: 2200 pg/mL
IL8 concentration [3, 10]: 850 pg/mL
IL8 concentration [3, 11]: 1250 pg/mL
IL8 induction compared with wild type ([3]; listed as deletion mutant of mTNFα in the region extending from amino acids 105 to 110): induce consistently less human interleukin 8 (IL8)
IL8 induction compared with wild type ([3]; listed as tip deletion mutant): about two times more powerful in inducing the inflammatory cytokine IL8
metastasis enhancing potential compared with wild type TNF ([5]; listed as TNF tip deletion mutant): considerably lower than that of wild type TNF
metastasis enhancing potential compared with wild type TNF ([5]; listed as mTNFα mutein carrying a deletion of the region extending from amino acids 105 to): considerably lower in vivo metastasis enhancing potential
general condition of mice ([5]; 17 days): looked significantly better
mean lung weight ([5]; 17 days, 5 μg/mouse i.p. 5 hours prior to 3LL-R cells): 566 ± 318
